Test results published in US20240294623A1 (SCHOLAR ROCK, published 2024).

Experiments:
hLTBP3-proTGFβ1 [1] = target: T1, hLTBP3-proTGFβ1 (human, UniProt Q9NS15 44-1303; P01137 30-390, limits assumed); test: SPR (Biacore), Fab; affinity relative to Ref
T1 construct: LLC as m1; Same id used for the cell-made complex in reporter assays; also called human LTBP3-proTGFβ1 complex; LTBP3-ProTGFb1
Protocol: (§1) Surface plasmon resonance (SPR) was used to measure binding kinetics using a BIACORE® system. […] Experiments were carried out with eight types of LLCs, namely, hLTBP1-proTGFβ1, mLTBP1-proTGFβ1, hLTBP3-proTGFβ1, mLTBP3-proTGFβ1, hGARP-proTGFβ1, mGARP-proTGFβ1, hLRRC33-proTGFβ1 and mLRRC33-proTGFβ1.
(§2) In vitro binding kinetics (on/off rates) were measured in Biacore-based assays and affinities were determined against all four known LLCs using both human and murine counterparts for each. Based on the association rate and dissociation rate, KD was calculated for each. In addition, relative affinities, as compared to the reference antibody as a benchmark, were calculated and expressed as “fold difference” relative to the reference antibody.
(§3) A BIACORE® system was employed to determine the monovalent binding affinity and the kinetic parameters for antigen binding of test antibodies. The binding kinetics were evaluated by surface plasmon resonance using Biacore 8K (GE Healthcare). A Biotin CAP sensor chip was used to capture the biotinylated antigens. […] Multi-cycle kinetics was employed where each analyte concentration was injected in a separate cycle and the sensor chip surface was regenerated after each cycle. All the assays were carried out in freshly prepared 1×HBS-EP+buffer (10 mM HEPES, 150 mM NaCl, 3 mM EDTA, 0.05% Tween20, pH 7.4). Data for all the analyte concentrations for each interaction were fit globally to a 1:1 binding model to obtain the kinetic parameters. The Sensorgram for 0 nM analyte concentration was used as reference.

hGARP-proTGFβ1 [2] = target: T2, hGARP-proTGFβ1 (human, UniProt Q14392 18-627; P01137 30-390, limits assumed); test: SPR (Biacore), Fab; affinity relative to Ref
T2 construct: LLC as m1; Same id used for the cell-surface complex in reporter assays; also called human GARP-proTGFβ1 complex; GARP-ProTGFb1
Protocol: as §1, §2, §3

mLTBP1-proTGFβ1 = target: T3, mLTBP1-proTGFβ1 (mouse); test: SPR (Biacore), Fab; affinity relative to Ref
T3 construct: Murine LLC; also called murine LTBP1-proTGFβ1 complex
Protocol: as §1, §2, §3

hLTBP1-proTGFβ1 [3] = target: T4, hLTBP1-proTGFβ1 (human, UniProt Q14766 347-1721; P01137 30-390, limits assumed); test: SPR (Biacore), Fab; affinity relative to Ref
T4 construct: Large latent complex (LLC): proTGFβ1 dimer disulfide-linked to one presenting molecule; recombinant, purified, biotinylated in BLI/SPR; The same id is used for the complex made by transfected cells in the reporter assays; also called human LTBP1-proTGFβ1 complex; LTBP1-ProTGFb1
Protocol: as §1, §2, §3

mLTBP3-proTGFβ1 = target: T5, mLTBP3-proTGFβ1 (mouse); test: SPR (Biacore), Fab; affinity relative to Ref
T5 construct: Murine LLC; also called murine LTBP3-proTGFβ1 complex
Protocol: as §1, §2, §3

mLRRC33-proTGFβ1 [4] = target: T6, mLRRC33-proTGFβ1 (murine, UniProt Q8BMT4 20-651); test: SPR (Biacore), Fab; affinity relative to Ref
[5] = target: endogenous LTBP-proTGFβ1 of human LN229 cells (human, UniProt P01137 30-390); test: cell-based or functional assay
hLTBP3-proTGFβ1 [6] = target: T1, hLTBP3-proTGFβ1; test: SPR (Biacore), Fab
Protocol: as §1, §2, §3

hGARP-proTGFβ1 [7] = target: T2, hGARP-proTGFβ1; test: SPR (Biacore), Fab
Protocol: as §1, §2, §3

hLTBP1-proTGFβ1 [8] = target: T4, hLTBP1-proTGFβ1; test: SPR (Biacore), Fab
Protocol: as §1, §2, §3

mGARP-proTGFβ1 [9] = target: T7, mGARP-proTGFβ1 (mouse); test: SPR (Biacore), Fab
T7 construct: Murine LLC; also called murine GARP-proTGFβ1 complex
Protocol: as §1, §2, §3

hLRRC33-proTGFβ1 [10] = target: T8, hLRRC33-proTGFβ1 (human, UniProt Q86YC3 19-650; P01137 30-390, limits assumed); test: SPR (Biacore), Fab; affinity relative to Ref
T8 construct: LLC as m1; Same id used for the cell-surface complex in reporter assays; also called human LRRC33-proTGFβ1 complex; LRRC33-ProTGFb1

mGARP-proTGFβ1 [11] = target: T7, mGARP-proTGFβ1; test: SPR (Biacore), Fab; affinity relative to Ref
hLTBP3-proTGFβ1 [12] = target: T1, hLTBP3-proTGFβ1; test: BLI (Octet), Fab in solution, biotinylated antigen immobilised
Protocol: (§4) The table below exemplifies binding kinetics of the listed antibodies (e.g., Fabs) obtained by OCTET®-based binding assays. The experiments were conducted with immobilized, biotinylated antigen and Fab fragments (e.g., test antibodies) in solution.

hGARP-proTGFβ1 [13] = target: T2, hGARP-proTGFβ1; test: as above
Protocol: as §4

hLTBP1-proTGFβ1 [14] = target: T4, hLTBP1-proTGFβ1; test: as above
Protocol: as §4

hLRRC33-proTGFβ1 [15] = target: T8, hLRRC33-proTGFβ1; test: SPR (Biacore), Fab
mLRRC33-proTGFβ1 [16] = target: T6, mLRRC33-proTGFβ1; test: SPR (Biacore), Fab

T4 sequence (Q14766 347-1721 limits assumed, chain 1 of 2): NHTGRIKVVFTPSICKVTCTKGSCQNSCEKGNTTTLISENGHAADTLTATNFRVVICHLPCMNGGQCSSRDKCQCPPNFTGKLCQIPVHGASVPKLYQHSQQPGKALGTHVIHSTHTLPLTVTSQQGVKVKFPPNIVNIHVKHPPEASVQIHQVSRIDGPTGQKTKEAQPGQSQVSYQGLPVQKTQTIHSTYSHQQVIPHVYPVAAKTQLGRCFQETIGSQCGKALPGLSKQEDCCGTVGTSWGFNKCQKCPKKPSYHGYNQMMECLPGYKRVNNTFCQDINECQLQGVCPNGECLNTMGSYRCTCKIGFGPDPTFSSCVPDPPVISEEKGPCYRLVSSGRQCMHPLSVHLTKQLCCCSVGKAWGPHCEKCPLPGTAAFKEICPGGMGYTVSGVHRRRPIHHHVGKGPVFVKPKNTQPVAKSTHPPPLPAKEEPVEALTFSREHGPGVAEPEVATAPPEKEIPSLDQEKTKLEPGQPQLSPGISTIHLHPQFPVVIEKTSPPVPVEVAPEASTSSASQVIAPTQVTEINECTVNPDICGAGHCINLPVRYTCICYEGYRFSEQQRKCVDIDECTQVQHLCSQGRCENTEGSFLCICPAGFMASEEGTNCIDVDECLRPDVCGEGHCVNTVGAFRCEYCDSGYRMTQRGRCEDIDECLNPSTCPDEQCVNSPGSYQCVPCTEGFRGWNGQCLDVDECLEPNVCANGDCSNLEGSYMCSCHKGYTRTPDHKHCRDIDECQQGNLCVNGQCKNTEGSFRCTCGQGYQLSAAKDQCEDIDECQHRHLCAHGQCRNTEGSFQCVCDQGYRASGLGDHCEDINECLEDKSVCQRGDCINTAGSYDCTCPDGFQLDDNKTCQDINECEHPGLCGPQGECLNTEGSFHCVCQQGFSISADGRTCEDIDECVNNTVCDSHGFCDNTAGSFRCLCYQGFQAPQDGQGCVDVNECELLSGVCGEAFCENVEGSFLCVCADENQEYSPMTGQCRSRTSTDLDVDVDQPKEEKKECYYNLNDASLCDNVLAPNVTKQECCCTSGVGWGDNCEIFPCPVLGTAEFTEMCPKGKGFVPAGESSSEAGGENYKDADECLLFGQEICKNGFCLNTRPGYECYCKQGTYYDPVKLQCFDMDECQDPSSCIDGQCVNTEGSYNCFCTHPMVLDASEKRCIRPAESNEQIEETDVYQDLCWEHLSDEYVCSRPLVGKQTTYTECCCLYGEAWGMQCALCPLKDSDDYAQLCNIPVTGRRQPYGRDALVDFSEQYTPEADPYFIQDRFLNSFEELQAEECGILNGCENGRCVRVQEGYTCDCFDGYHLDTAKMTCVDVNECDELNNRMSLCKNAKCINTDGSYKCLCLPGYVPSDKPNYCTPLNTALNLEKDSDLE
T4 sequence (P01137 30-390 limits assumed, chain 2 of 2): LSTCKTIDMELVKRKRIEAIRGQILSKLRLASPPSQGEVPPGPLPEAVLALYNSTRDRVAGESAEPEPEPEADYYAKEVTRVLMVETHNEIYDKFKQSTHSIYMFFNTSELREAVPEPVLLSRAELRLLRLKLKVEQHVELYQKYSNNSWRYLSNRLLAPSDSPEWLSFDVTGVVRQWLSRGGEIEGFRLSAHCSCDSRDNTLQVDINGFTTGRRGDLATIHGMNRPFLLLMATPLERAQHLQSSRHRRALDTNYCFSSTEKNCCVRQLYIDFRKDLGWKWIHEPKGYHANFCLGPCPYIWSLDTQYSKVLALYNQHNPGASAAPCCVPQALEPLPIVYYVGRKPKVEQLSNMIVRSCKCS
T2 sequence (Q14392 18-627 limits assumed, chain 1 of 2): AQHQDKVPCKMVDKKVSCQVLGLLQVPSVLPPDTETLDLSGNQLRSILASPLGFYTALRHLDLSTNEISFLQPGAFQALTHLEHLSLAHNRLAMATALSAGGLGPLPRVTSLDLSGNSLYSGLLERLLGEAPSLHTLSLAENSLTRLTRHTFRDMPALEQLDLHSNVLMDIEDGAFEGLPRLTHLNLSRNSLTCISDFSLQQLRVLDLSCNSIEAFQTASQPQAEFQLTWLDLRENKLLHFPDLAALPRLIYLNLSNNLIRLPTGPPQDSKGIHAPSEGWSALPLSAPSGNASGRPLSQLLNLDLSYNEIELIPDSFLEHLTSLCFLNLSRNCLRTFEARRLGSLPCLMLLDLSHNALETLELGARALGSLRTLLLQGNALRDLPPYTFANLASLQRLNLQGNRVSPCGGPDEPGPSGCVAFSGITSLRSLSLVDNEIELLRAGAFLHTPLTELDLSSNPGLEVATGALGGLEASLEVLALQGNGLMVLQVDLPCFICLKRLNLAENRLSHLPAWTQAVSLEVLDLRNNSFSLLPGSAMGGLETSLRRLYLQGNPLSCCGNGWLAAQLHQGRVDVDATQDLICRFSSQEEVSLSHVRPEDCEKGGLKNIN
T2 sequence (P01137 30-390 limits assumed, chain 2 of 2): as the sequence (P01137 30-390 limits assumed, chain 2 of 2) above
T1 sequence (Q9NS15 44-1303 limits assumed, chain 1 of 2): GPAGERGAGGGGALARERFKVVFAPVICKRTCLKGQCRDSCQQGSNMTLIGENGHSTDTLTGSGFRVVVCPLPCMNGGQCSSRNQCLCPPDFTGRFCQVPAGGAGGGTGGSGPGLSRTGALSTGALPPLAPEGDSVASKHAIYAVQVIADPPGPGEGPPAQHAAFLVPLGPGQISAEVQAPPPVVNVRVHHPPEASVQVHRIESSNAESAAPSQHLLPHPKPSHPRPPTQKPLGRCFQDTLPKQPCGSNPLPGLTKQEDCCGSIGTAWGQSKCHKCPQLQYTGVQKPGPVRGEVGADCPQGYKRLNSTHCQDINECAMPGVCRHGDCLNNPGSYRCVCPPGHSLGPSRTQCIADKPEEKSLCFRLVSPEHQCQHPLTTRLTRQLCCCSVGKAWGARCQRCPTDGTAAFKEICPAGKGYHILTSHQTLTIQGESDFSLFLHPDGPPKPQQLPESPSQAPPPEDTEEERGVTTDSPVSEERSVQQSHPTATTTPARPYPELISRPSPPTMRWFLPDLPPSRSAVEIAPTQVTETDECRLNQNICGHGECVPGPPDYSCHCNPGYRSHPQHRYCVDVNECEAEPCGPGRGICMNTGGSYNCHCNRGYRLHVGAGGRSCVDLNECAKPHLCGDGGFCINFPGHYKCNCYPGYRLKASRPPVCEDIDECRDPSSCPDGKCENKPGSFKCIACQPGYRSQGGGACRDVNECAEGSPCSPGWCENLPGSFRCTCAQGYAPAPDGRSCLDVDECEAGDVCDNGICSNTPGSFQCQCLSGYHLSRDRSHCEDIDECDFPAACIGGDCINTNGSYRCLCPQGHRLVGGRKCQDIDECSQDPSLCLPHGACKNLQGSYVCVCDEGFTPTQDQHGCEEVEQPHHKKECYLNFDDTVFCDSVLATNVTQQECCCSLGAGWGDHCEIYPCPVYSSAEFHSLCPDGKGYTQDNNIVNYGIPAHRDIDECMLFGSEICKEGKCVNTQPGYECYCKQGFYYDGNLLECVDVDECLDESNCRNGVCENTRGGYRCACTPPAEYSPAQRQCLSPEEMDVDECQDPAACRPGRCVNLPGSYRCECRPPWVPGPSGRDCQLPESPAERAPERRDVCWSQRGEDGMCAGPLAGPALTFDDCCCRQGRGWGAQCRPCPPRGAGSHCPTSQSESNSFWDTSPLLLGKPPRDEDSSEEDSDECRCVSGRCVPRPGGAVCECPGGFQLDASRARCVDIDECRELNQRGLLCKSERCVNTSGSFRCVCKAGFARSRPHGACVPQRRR
T1 sequence (P01137 30-390 limits assumed, chain 2 of 2): as the sequence (P01137 30-390 limits assumed, chain 2 of 2) above
T6 sequence (Q8BMT4 20-651): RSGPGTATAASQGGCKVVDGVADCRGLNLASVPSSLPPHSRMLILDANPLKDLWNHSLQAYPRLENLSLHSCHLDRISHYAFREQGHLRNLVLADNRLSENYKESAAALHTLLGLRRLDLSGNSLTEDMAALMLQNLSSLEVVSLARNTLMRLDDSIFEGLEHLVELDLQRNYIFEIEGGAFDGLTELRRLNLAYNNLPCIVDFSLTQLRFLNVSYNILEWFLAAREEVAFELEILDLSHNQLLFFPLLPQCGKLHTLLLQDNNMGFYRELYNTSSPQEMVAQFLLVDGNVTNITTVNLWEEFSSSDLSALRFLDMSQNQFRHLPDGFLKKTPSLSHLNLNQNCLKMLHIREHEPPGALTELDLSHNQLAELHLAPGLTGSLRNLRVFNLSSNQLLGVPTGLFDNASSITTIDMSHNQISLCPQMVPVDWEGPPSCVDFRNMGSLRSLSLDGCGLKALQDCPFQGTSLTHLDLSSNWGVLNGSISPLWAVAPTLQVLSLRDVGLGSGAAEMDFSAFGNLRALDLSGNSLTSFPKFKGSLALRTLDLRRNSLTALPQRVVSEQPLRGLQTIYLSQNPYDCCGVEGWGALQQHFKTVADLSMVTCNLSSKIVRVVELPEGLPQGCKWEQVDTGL
T8 sequence (Q86YC3 19-650 limits assumed, chain 1 of 2): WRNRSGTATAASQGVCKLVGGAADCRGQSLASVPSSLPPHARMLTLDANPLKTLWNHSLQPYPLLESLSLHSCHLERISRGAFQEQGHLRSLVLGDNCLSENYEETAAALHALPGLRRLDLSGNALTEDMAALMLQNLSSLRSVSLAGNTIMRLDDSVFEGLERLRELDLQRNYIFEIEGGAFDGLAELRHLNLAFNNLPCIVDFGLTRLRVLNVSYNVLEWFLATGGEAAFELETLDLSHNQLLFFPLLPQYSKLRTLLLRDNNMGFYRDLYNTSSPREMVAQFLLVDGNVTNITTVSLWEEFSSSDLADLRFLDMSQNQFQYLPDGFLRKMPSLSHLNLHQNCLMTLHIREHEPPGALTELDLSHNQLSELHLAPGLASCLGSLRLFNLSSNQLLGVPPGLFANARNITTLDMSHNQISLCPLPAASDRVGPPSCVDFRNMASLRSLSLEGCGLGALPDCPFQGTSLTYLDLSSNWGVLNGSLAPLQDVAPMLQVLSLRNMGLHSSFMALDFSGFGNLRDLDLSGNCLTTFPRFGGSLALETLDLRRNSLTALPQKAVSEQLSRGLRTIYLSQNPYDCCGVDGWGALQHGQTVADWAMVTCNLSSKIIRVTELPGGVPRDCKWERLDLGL
T8 sequence (P01137 30-390 limits assumed, chain 2 of 2): as the sequence (P01137 30-390 limits assumed, chain 2 of 2) above
endogenous LTBP-proTGFβ1 of human LN229 cells, sequence (P01137 30-390): as the sequence (P01137 30-390 limits assumed, chain 2 of 2) above

Fold difference (hLTBP3-proTGFβ1 [1]): 72 fold
Fold difference (hGARP-proTGFβ1 [2]): 53 fold
Fold difference (mLTBP1-proTGFβ1): 123 fold
Fold difference (hLTBP1-proTGFβ1 [3]): 134 fold
Fold difference (mLTBP3-proTGFβ1): 91 fold
Fold difference (mLRRC33-proTGFβ1 [4]): 95 fold
fAb IC50 [5]: 0.723 nM
Kd (hLTBP3-proTGFβ1 [6]): 0.127 nM
koff (hLTBP3-proTGFβ1 [6]): 0.000128 s⁻¹
kon (hLTBP3-proTGFβ1 [6]): 1e+06 M⁻¹ s⁻¹
Kd (hGARP-proTGFβ1 [7]): 0.23 nM
koff (hGARP-proTGFβ1 [7]): 0.000222 s⁻¹
kon (hGARP-proTGFβ1 [7]): 965000 M⁻¹ s⁻¹
Kd (hLTBP1-proTGFβ1 [8]): 0.0502 nM
koff (hLTBP1-proTGFβ1 [8]): 8.81e-05 s⁻¹
kon (hLTBP1-proTGFβ1 [8]): 1.75e+06 M⁻¹ s⁻¹
Kd (mGARP-proTGFβ1 [9]): 0.274 nM
koff (mGARP-proTGFβ1 [9]): 0.000278 s⁻¹
kon (mGARP-proTGFβ1 [9]): 1.02e+06 M⁻¹ s⁻¹
Fold difference (hLRRC33-proTGFβ1 [10]): 118 fold
Fold difference (mGARP-proTGFβ1 [11]): 69 fold
koff (hLTBP3-proTGFβ1 [12]): 0.000438 s⁻¹
kon (hLTBP3-proTGFβ1 [12]): 619000 M⁻¹ s⁻¹
koff (hGARP-proTGFβ1 [13]): 0.00029 s⁻¹
kon (hGARP-proTGFβ1 [13]): 703000 M⁻¹ s⁻¹
koff (hLTBP1-proTGFβ1 [14]): 4.98e-05 s⁻¹
kon (hLTBP1-proTGFβ1 [14]): 703000 M⁻¹ s⁻¹
Kd (hLRRC33-proTGFβ1 [15]): 0.0841 nM
koff (hLRRC33-proTGFβ1 [15]): 0.000128 s⁻¹
kon (hLRRC33-proTGFβ1 [15]): 1.52e+06 M⁻¹ s⁻¹
Kd (mLRRC33-proTGFβ1 [16]): 0.0892 nM
koff (mLRRC33-proTGFβ1 [16]): 0.000112 s⁻¹
kon (mLRRC33-proTGFβ1 [16]): 1.26e+06 M⁻¹ s⁻¹
B1: Ab46 Fab (Fab, V domains shown)
VH: EVQLLESGGGLVQPGGSLRLSCAASGFTFADYAMTWVRQAPGKGLEWVSAISGSGAATYFADSVKGRFTISRDNSKNTLYLQMNSLRAEDTAVYYCARVSSGHWDYDYWGQGTLVTVSS
VL: DIQLTQSPSSLSASVGDRVTITCRASQSISSYLNWYQQKPGKAPKLLIYAASGLESGVPSRFSGSGSGTDFTLTISSLQPEDFATYYCQQTYGVPLTFGGGTKVEIK
notes: Fab fragment
